How the values were obtained:
[1] = target: rituximab (human monoclonal IgG1) (human); experiment: SPR; rituximab covalently immobilised (NHS/EDC) on a CM5 chip, Biacore X100; Z3 flowed over in HBS-EP+ (10 mM HEPES, 150 mM NaCl, 3 mM EDTA, 0.005% Tween-20, pH 7.4); 1:1 Langmuir model; KD calculated as koff/kon
[2] = target: rituximab (human monoclonal IgG1) (human); experiment: differential scanning fluorimetry; equimolar (1:1) mixture of rituximab and Z3 against rituximab alone; SYPRO orange, 20 mM Tris, pH 7.4
[3] = target: rituximab (human monoclonal IgG1) (human); experiment: ITC; Z3 titrated into rituximab in the sample cell; PBS, pH 7.4, 25 °C; MicroCal PEAQ-ITC; triplicate
[4] = target: linear Z3 (linear trimer of the Staphylococcus aureus protein A Z domain) (Staphylococcus aureus); experiment: AUC; sedimentation velocity at 40,000 and 60,000 rpm, PBS (Dulbecco), 20 °C, 220 nm; molar mass transformation

Chain of rituximab (human monoclonal IgG1) (human) (heavy, as listed by the source, chain 1 of 2): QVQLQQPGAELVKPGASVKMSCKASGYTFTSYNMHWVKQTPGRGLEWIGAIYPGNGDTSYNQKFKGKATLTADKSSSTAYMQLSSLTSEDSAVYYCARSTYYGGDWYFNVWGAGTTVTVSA
Chain of rituximab (human monoclonal IgG1) (human) (light, as listed by the source, chain 2 of 2): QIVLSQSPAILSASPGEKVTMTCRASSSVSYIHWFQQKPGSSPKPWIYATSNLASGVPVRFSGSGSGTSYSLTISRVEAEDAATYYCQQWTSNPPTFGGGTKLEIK

Substance | Kd [1] [nM] | koff [1] [s⁻¹] | kon [1] [M⁻¹ s⁻¹] | increase of the lower transition temperature of rituximab [2] [°C] | upward shift of the 81.3 °C transition of rituximab [2] [°C] | Kd [3] [nM] | dH [3] [kcal/mol] | stoichiometry N (IgG1 molecules per cyclic Z3 molecule) [3] | stoichiometry N [4] | stoichiometry N (IgG1 molecules per linear Z3) [3]
cyclic Z3 (intein-cyclized trimer of the Staphylococcus aureus protein A Z domain) (designed binder) | 3.3 | 0.00073 | 220000 | 4.9 | 1.5 | 7.6 | -32.7 | 2.1 | – | –
linear Z3 (linear trimer of the Staphylococcus aureus protein A Z domain) (designed binder) | 2.9 | 0.00092 | 310000 | 4.9 | 3.3 | 2.8 | -33 | – | < 3 | 1.9

From PMC9865183
